According to ChEMBL document CHEMBL2074046, “Selectivity of the polyspecific cation transporter rOCT1 is changed by mutation of aspartate 475 to glutamate” (Mol Pharmacol, 1999):

Experiments:
[1] = target: T1, Solute carrier family 22 member 1 (Rattus norvegicus, UniProt Q63089); experiment: TP_TRANSPORTER: inhibition of MPP+ uptake (MPP+: 0.1 uM) in OCT1-expressing HEK293 cells; format: functional, cell-based
T1 sequence (Q63089 whole entry): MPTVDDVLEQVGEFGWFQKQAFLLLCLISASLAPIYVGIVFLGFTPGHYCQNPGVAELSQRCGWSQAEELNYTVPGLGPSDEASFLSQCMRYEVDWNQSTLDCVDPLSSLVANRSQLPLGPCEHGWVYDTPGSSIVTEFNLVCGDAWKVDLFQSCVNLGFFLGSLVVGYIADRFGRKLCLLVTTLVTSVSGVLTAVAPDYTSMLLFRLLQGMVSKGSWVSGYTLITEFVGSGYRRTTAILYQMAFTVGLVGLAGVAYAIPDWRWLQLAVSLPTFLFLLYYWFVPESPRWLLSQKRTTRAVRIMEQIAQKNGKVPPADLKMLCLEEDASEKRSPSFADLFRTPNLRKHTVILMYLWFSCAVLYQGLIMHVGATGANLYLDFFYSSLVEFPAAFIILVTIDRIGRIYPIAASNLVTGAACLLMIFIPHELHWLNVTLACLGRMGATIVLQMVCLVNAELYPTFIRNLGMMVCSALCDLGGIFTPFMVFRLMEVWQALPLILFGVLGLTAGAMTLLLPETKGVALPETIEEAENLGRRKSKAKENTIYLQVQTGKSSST

[2] = target: T1, Solute carrier family 22 member 1
[3] = substrate: C[N+](C)(C)CCO; experiment: cells, lysate or membranes named
[4] = substrate: CC[N+](CC)(CC)CC; experiment: cells, lysate or membranes named
[5] = substrate: C[n+]1ccc(-c2ccccc2)cc1; experiment: TP_TRANSPORTER: uptake in OCT1-expressing HEK293 cells; format: functional, cell-based
[6] = substrate: C[n+]1ccc(-c2ccccc2)cc1; experiment: (§1) TP_TRANSPORTER: uptake in Xenopus laevis oocytes; format: functional, cell-based, Oocyte
[7] = substrate: CNC(=O)c1cccnc1; experiment: as §1; format: functional, cell-based, Oocyte

CCCCC[N+](CCCCC)(CCCCC)CCCCC [TETRAPENTYLAMMONIUM]
IC50 [1]: 180 nM

CCCC[N+](CCCC)(CCCC)CCCC [TETRABUTHYLAMMONIUM]
IC50 [2]: 3000 nM

B1: Solute carrier family 22 member 1 (Rattus norvegicus) (protein)
chain: T1 sequence (Q63089 whole entry)
Km [3]: 370 µM
Km [4]: 129 µM
Km [5]: 9.4 µM
Km [6]: 2.7 µM
Km [7]: 126 µM
